Source: US20180244777A1 (NUMAB THERAPEUTICS, published 2018)
Like-named read-outs stand apart in the source and are kept apart here.

T1: linear 15mer peptide derived from cynomolgus CD3ε residues 2-16 (wild type of the substitution library, Set 2) (cynomolgus)
T1 construct: Probed as a saturation mutagenesis library on a peptide array
T1 peptide: DGNEEMGSITQTPYQ

T2: linear 15mer peptide derived from human CD3ε residues 2-16 (wild type of the substitution library, Set 1) (human)
T2 construct: Probed as a saturation mutagenesis library on a peptide array
T2 peptide: DGNEEMGGITQTPYK

T3: linear 15mer peptides derived from cynomolgus CD3ε residues 5-20 (Set 4) (cynomolgus)
T3 construct: also called peptides spanning residues 5-20
T3 peptide: EEMGSITQTPYQVSIS

T4: linear 15mer peptides derived from human CD3ε residues 5-20 (Set 3) (human)
T4 construct: also called peptides spanning residues 5-20
T4 peptide: EEMGGITQTPYKVSIS


Legend:
[1] = biological target: T1, linear 15mer peptide derived from …; experiment: 15mer peptide array ELISA
[2] = biological target: T2, linear 15mer peptide derived from human …; experiment: 15mer peptide array ELISA
[3] = biological target: T5, cynomolgus monkey heterodimeric single-chain CD3εγ extracellular domain (cynomolgus monkey, UniProt Q95LI5 22-117; Q95LI7 23-113); experiment: SPR, rabbit IgG captured, cyno single-chain CD3εγ ECD injected
T5 sequence (Q95LI7 other isoform, or with tags, fused parts or gaps): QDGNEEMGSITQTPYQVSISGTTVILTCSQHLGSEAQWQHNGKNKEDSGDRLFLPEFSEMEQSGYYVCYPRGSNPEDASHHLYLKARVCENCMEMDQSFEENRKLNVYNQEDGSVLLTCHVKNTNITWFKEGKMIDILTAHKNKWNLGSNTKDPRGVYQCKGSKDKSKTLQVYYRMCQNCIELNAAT

[4] = biological target: T6, human heterodimeric single-chain CD3εγ extracellular domain (human, UniProt P07766 23-126; P09693 23-116); experiment: SPR, rabbit IgG captured, human single-chain CD3εγ ECD injected
T6 construct: extracellular domain; Produced in-house; also called scCD3γε; human CD3ge
Method: (§1) Binding affinities of monoclonal rabbit anti-CD3 antibodies were measured by surface plasmon resonance (SPR) using a MASS-1 SPR instrument (Sierra Sensors). […] Rabbit monoclonal antibodies were captured by the immobilized anti-rabbit IgG antibody. Two-fold serial dilutions of human heterodimeric single-chain CD3εγ extracellular domain (produced in-house) ranging from 90 to 2.81 nM were injected into the flow cells for 3 min and dissociation of the protein from the IgG captured on the sensor chip was allowed to proceed for 5 min. After each injection cycle, surfaces were regenerated with two injections of 10 mM glycine-HCl. The apparent dissociation (kd) and association (ka) rate constants and the apparent dissociation equilibrium constant (KD) were calculated with the MASS-1 analysis software (Analyzer, Sierra Sensors) using one-to-one Langmuir binding model.

[5] = biological target: T5, cynomolgus monkey heterodimeric …; experiment: SPR; ratio of the KDs for cyno and human single-chain CD3εγ
[6] = biological target: T3, linear 15mer peptides derived from …; experiment: peptide array ELISA, Set 4
Method: (§2) The binding of the antibodies to each of the synthesized peptides was tested by ELISA. The peptide arrays were incubated with primary antibody solution (overnight at 4° C.). After washing, the peptide arrays were incubated with a 1/1000 dilution of an antibody peroxidase conjugate (SBA, cat.nr.2010-05) for one hour at 25° C. After washing, the peroxidase substrate 2,2′-azino-di-3-ethylbenzthiazoline sulfonate (ABTS) and 2 μl/ml of 3% H₂O₂ were added. After one hour, the color development was measured. The color development was quantified with a charge coupled device (CCD)—camera and an image processing system.

[7] = biological target: T4, linear 15mer peptides derived from …; experiment: peptide array ELISA, Set 3
Method: as §2

[8] = biological target: T7, human CD3ε expressed on the cell surface of T cells (Jurkat cells; human CD8+ T cells) (human, UniProt P07766 23-207); experiment: cell-based ELISA on Jurkat cells, CD3ε-deficient Jurkat subtracted
T7 construct: whole, on cells; also called native CD3ε embedded in the TCR complex on Jurkat cells
Method: (§3) Jurkat cells (clone E6-1), a human T cell line, were seeded at 300,000 cells/well in round bottom 96-well plates in 100 μl phosphate-buffered saline (PBS) containing 10% FBS. Five-fold serial dilutions of anti-CD3 rabbit monoclonal antibodies ranging from 90 nM to 0.0058 nM were added to the plates in 100 μl PBS containing 10% FBS. […] This secondary antibody was linked to the enzyme horseradish peroxidase (HRP). HRP activity was measured by addition of TMB substrate (3,3′,5,5′-tetramethylbenzidine, KPL, Cat. No. 53-00-00), which in a colorimetric reaction is processed by the HRP. The color intensity of the processed substrate is directly proportional to the amount of anti-CD3 antibody bound to Jurkat cells. To quantify color intensity, light absorbance (optical density) at the respective wave length was measured using a microtiter plate reader (Infinity reader M200 Pro, Tecan).
(§4) To correct for unspecific binding of the antibodies to unknown components presented on the cell surface of Jurkat cells, a CD3ε deficient derivative of the Jurkat T cell line (J.RT3-T3.5) was used. Binding of the monoclonal antibodies to this cell line was measured as described above for the Jurkat cells. For quantification of specific binding to Jurkat cells, the optical density for binding to the negative control was subtracted from the optical density for binding to Jurkat cells. Data were analyzed using a four-parameter logistic curve fit using the Softmax Data Analysis Software (Molecular Devices), and the molar concentration of anti-CD3 antibody required to reach 50% binding (EC₅₀, mid-OD of the standard curve) was derived from dose response curves.

[9] = biological target: T7, human CD3ε expressed on the cell …; experiment: cell-based ELISA on Jurkat cells
Method: as §3, §4

[10] = biological target: T8, cynomolgus monkey CD3ε expressed on the surface of HSC-F T cells (cynomolgus monkey, UniProt Q95LI5 22-198); experiment: cell-based ELISA on cyno HSC-F T cells
T8 construct: whole, on cells; also called cyno HSC-F T cells
T8 sequence (Q95LI5 22-198): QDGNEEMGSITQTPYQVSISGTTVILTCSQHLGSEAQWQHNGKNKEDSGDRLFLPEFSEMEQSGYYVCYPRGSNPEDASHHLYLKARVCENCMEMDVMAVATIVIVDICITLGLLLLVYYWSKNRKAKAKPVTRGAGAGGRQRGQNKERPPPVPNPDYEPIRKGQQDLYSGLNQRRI

[11] = biological target: T6, human heterodimeric single-chain CD3εγ …; experiment: SPR, rabbit IgG captured, human single-chain CD3εγ ECD injected; remark: listed apart in the source
Method: as §1

[12] = biological target: T7, human CD3ε expressed on the cell …; experiment: cell-based or functional assay
[13] = biological target: T5, cynomolgus monkey heterodimeric …; experiment: SPR, rabbit IgG captured, cyno single-chain CD3εγ ECD injected; remark: listed apart in the source
[14] = biological target: T7, human CD3ε expressed on the cell …; experiment: cell-based or functional assay; remark: listed apart in the source

| binding result [1] | binding result [2] | Kd [3] | koff [3] | kon [3] | Kd [4] | KD (human)/KD (cyno) [5] | binding result [6] | binding result [7] | EC50 [8] | EC50 [9] | EC50 [10] | Kd [11] | koff [11] | kon [11] | Fold increase in CD69 expression [MFI normalized to neg. ctrl.], 1.25 µg/ml anti-CD3 IgG [12] | Fold increase in CD69 expression [MFI normalized to neg. ctrl.], 5 µg/ml anti-CD3 IgG [12] | Fold increase in CD69 expression [MFI normalized to neg. ctrl.], 20 µg/ml anti-CD3 IgG [12] | Kd [13] | EC50 in the dose-response curve of specific lysis of CHO-IL5R target cells at 64 hours [14] | Binder |
| --- | --- | --- | --- | --- | --- | --- | --- | --- | --- | --- | --- | --- | --- | --- | --- | --- | --- | --- | --- | --- |
| binds | binds | 8.95 nM | 0.00397 s⁻¹ | 444000 M⁻¹ s⁻¹ | 2.23 nM | 4 | no binding | no binding | 0.67 nM | 0.67 nM | 1.6 nM | 2.23 nM | 0.00138 s⁻¹ | 618000 M⁻¹ s⁻¹ | 2.7 fold | 5.1 fold | 5.3 fold | 8.95 nM |  | clone-06 (antibody, V domains shown, Recombinant rabbit IgG; also called Clone 6) VH: QSVEESGGRLVTPGTPLTLTCTVSGFPLSSYAMIWVRQAPGKGLEWIGMILRAGNIYYASWVKGRVTISKTSTTVDLKITSPTTEDTATYFCARRHYNREGYPIGIGDLWGPGTLVTVSS VL: AQVLTQTPSSVSAAVGGTVTISCQSSESVYNNKRLSWFQQKPGQPPKQLIYTASSLASGVPSRFKGSGSGTQFTLTISDLECDDAATYYCQGEFTCSNADCFTFGGGTEVVVKG |
| binds | binds | 11.5 nM | 0.00403 s⁻¹ | 350000 M⁻¹ s⁻¹ | 0.905 nM | 13 | no binding | no binding | 1.45 nM | 1.45 nM | 23.9 nM | 0.905 nM | 0.000498 s⁻¹ | 551000 M⁻¹ s⁻¹ | 2.6 fold | 4.6 fold | 6.6 fold | 11.5 nM |  | clone-03 (antibody, V domains shown, Recombinant rabbit IgG; also called Clone 3) VH: QSLEESGGRLVTPGTPLTLTCTVSGFPLNRYAMLWVRQAPGKGLEWIGLITRADKKYYASWAKGRFTISKTSTTVDLEITGPTTEDTATYFCARRHYNTDGYPIAIGDLWGPGTLVTVSS VL: AQVLTQTPSSVSAAVGGTVTISCQSNENIYSNNRLSWFQQKPGQPPNQLIYSASSLASGVPSRFKGSGSGTQFTLTISDLECDDAATYYCQGEFNCNSADCFTFGGGTEVVVKG |
|  |  |  |  |  |  |  |  |  |  |  |  |  |  |  |  |  |  |  | 0.31 nM | anti-IL5R×CD3ε scDb containing Numab's anti-CD3 domain (humanized clone 6), Example 9 (bispecific antibody) DIQMTQSPSSLSASVGDRVTITCQASQNIYSNLAWYQQKPGKAPKLLIYRASTLASGVPSRFSGSGSGTDFTLTISSLQPEDFATYYCQSNYGINYYGAAFGQGTKLTVLGGGGGSEVQLVESGGGLVQPGGSLRLSCAASGFPLSSYAMIWVRQAPGKGLEWIGMILRAGNIYYASWVKGRFTISRDNSKNTVYLQMNSLRAEDTAVYYCARRHYNREGYPIGIGDLWGQGTLVTVSSGGGGSGGGGSGGGGSGGGGSDIQMTQSPSSLSASVGDRVTITCQSSESVYNNKRLSWYQQKPGKAPKLLIYTASSLASGVPSRFSGSGSGTDFTLTISSLQPEDFATYYCQGEFTCSNADCFTFGQGTKLTVLGGGGGSEVQLVESGGGLVQPGGSLRLSCAASGFSLSSYDMTWVRQAPGKGLEWIGIIYVSGSAYYASWAKGRFTISRDNSKNTVYLQMNSLRAEDTAVYYCARINYGLDLWGQGTLVTVSS |
